Measurements: article PMC12302650, “A tubulin-binding protein that preferentially binds to GDP-tubulin and promotes GTP exchange” (The Journal of Biological Chemistry, 2025)

B1: Xenopus laevis BuGZ (Bub3-interacting and GLEBS motif-containing protein ZNF207), full-length wild type (natural protein)
chain: not shown
notes: BuGZ (ZNF207), Xenopus laevis, UniProt Q7ZXV8; full-length wild type; also called wild-type BuGZ; full-length BuGZ; source: purified
B2: BuGZ-NTD (domain or fragment)
chain: not shown
notes: BuGZ (ZNF207), Xenopus laevis, UniProt Q7ZXV8; the N-terminal 92 amino acids, which contain the two zinc fingers; The discussion says the zinc finger domain of BuGZ can be produced in bacteria; also called BuGZ's N-terminal domain; N-terminal 92 amino acids of BuGZ; source: purified

Assays:
[1] = biological target: T1, GDP-tubulin (biotinylated α/β-tubulin heterodimer with GDP-bound β-tubulin) (UniProt Q71U36 1-451; Q9H4B7 1-451, biotinylated tubulin (chain and residues not stated) | biotinylated tubulin (chain and residues not stated)); assay: cell-based or functional assay
[2] = biological target: T1, GDP-tubulin (biotinylated α/β-tubulin …); assay: pull-down; supernatant depletion at equilibrium, same assay as for GTP-tubulin but with bead-bound GDP-tubulin; BuGZ construct (or mEGFP control) in solution; fit with Equation S2 for wild-type BuGZ; settings: both partners purified
[3] = biological target: GTP-tubulin (biotinylated α/β-tubulin heterodimer with GTP-bound β-tubulin) (UniProt Q71U36 1-451; Q9H4B7 1-451, biotinylated tubulin (chain and residues not stated) | biotinylated tubulin (chain and residues not stated)); assay: pull-down; supernatant depletion at equilibrium; varying concentrations of biotinylated GTP-tubulin on streptavidin-coated magnetic beads; BuGZ construct (or mEGFP control) in solution, BuGZ 1.19 μM; 4 °C; nocodazole present; depletion from the supernatant measured by immunoblotting; settings: both partners purified
[4] = biological target: taxol-stabilized microtubules (polymerized with a 1:10 mixture of biotin-labeled: unlabeled GTP-tubulin) (UniProt Q71U36 1-451; Q9H4B7 1-451, biotin on part of the tubulin (1:10 biotin-labeled: unlabeled; chain and residues not stated) | biotin on part of the tubulin (1:10 biotin-labeled: unlabeled; chain and residues not stated)); assay: pull-down; supernatant depletion at equilibrium; varying concentrations of biotin-containing taxol-stabilized microtubules on streptavidin-coated magnetic beads; BuGZ 1.19 μM; 4 °C; BuGZ left in the supernatant measured by quantitative immunoblotting; fit with a rectangular hyperbola (Equation S1); settings: both partners purified

| Binder | GTP α-32P incorporation into 100 μM GDP-tubulin at equilibrium (1:1 GTP:GDP, 1.19 μM BuGZ, room temperature), increase relative to the control condition [1] [%] | Kd [2] [nM] | Kd [3] [nM] | Kd [4] [nM] |
| --- | --- | --- | --- | --- |
| B1 | 60.1 | 45.3 | 477 | 9450 |
| B2 |  | 1470 | 7140 |  |
